Assay results reported in patent US20210139581A1 (Alector, published 2021).
Where two headings read alike, the source gives them in different places.

How the values were obtained:
human CD33 [1] = target: T1, human CD33 (human, UniProt P20138 18-259, limits assumed); assay: BLI (ForteBio), Fab 100 nM on immobilized CD33
T1 construct: Human CD33 immobilized on the BLI sensor tip or the BIAcore C1 chip; also called Siglec-3
Description: (§1) The affinities (KD) of the humanized antibodies for human CD33 were measured for each antibody by BioLayer Interferometry in a ForteBio assay according to standard techniques (Estep et al. (2013) MAbs 5(2): 270-8). […] The assay was carried out at room temperature.

[2] = target: T2, human CD33 on primary human monocyte-derived dendritic cells (human, UniProt P20138 18-364); assay: cell-based or functional assay
[3] = target: T2, human CD33 on primary human …; assay: cell-based or functional assay; remark: listed apart in the source
human CD33 [4] = target: T1, human CD33; assay: BLI (ForteBio), Fab 100 nM on immobilized CD33; remark: listed apart in the source
Description: as §1
The affinities of AB-H14 and its affinity-matured variants (Table 15) and AB-H63 and its affinity-matured variants (Table 16), for human CD33 were measured by Fortebio assay according to the method described in Example 1 above.

human CD33 [5] = target: T1, human CD33; assay: SPR (BIAcore), Fab over CD33 on C1 chip
Description: (§2) The affinity parameters for 10 of the 88 humanized antibodies (AB-H1, AB-H3, AB-H6, AB-H11, AB-H22, AB-H24, AB-H26, AB-H63, AB-H64, and AB-H71) were measured in a separate experiment by a more sensitive technique, surface plasmon resonance (BIAcore), and compared to Chimeric Ab and Chimeric Ab #2. BIAcore measurements were performed as follows: human CD33 was immobilized on the surface of a C1 chip, and Fabs were injected for 300 s to monitor association, followed by a 900 s flow in running buffer to monitor dissociation. The Fabs were measured at 5 concentrations: a high concentration of 27 nM and 3-fold serial dilutions.

[6] = target: T2, human CD33 on primary human …; assay: cell-based or functional assay; remark: listed apart in the source
[7] = target: T2, human CD33 on primary human …; assay: cell-based or functional assay; remark: listed apart in the source
human CD33 [8] = target: T1, human CD33; assay: BLI (ForteBio), Fab 100 nM on immobilized CD33; remark: listed apart in the source
Description: as §1
The affinities of AB-H64 and its variants (Table 5) for human CD33 were measured by Fortebio assay according to the method described in Example 1 above.

human CD33 [9] = target: T1, human CD33; assay: SPR (BIAcore), Fab over CD33 on C1 chip; remark: listed apart in the source
Description: as §2
In a separate experiment, as determined by the more sensitive BIAcore technique, affinity parameters of affinity matured antibodies derived from the humanized antibody AB-H64 were measured and were directly compared to that of the Chimeric Ab, according to the method described in Example 1 above.

[10] = target: T2, human CD33 on primary human …; assay: cell-based or functional assay; remark: listed apart in the source

T2 sequence (P20138 18-364): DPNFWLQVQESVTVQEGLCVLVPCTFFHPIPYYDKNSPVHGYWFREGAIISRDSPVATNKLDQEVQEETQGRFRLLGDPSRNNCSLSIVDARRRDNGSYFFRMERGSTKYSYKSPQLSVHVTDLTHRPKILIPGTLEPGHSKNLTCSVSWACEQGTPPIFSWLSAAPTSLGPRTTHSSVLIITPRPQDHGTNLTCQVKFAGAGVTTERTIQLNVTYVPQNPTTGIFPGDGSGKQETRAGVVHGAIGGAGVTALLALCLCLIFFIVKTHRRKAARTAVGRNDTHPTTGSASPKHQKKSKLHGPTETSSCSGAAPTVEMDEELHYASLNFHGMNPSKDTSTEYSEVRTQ
T1 sequence (P20138 18-259 limits assumed): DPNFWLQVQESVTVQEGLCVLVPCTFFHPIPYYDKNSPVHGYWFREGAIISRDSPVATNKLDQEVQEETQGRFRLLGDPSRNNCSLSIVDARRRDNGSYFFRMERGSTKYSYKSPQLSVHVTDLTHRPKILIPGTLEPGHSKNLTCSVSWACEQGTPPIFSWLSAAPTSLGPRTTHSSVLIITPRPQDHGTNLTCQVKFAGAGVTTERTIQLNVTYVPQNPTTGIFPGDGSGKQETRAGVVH

Kd (human CD33 [1])	Receptor downregulation (EC50) [2]	Fold affinity improvement over parental Ab (AB-H64) (human CD33 [8])	Kd (human CD33 [8])	Fold Change to AB-H64 (human CD33 [9])	Fold Change to Chimeric Ab (human CD33 [9])	Kd (human CD33 [9])	koff (human CD33 [9])	kon (human CD33 [9])	Receptor downregulation (EC50) [10]	Binder	further results
3.24 nM	0.0517 nM									AB-H2 (antibody, V domains shown, Humanized variant of murine 2F5.1) VH: QVQLVQSGAEVKKPGASVKVSCKASGYTFTDYNLHWVRQAPGQGLEWIGFIYPSNGITGYAQKFQGRVTMTVDTSTSTVYMELSSLRSEDTAVYYCARSTVDYFDYWGQGTLVTVSS VL: DIQMTQSPSSLSASVGDRVTITCRASQSVSTSTYSYMHWYQQKPGKAPKLLIYYASNLESGVPSRFSGSGSGTDFTLTISSLQPEDFATYYCQHSWEIPLTFGQGTKLEIK	
4.07 nM	0.0041 nM									AB-H63 (antibody, V domains shown, Humanized variant of murine 2F5.1) VH: QVQLVQSGAEVKKPGASVKVSCKASGYTFTDYNLHWVRQAPGQGLEWIGFIYPSNGITGYAQKFQGRVTMTVDTSTSTVYMELSSLRSEDTAVYYCARSTVDYFDYWGQGTLVTVSS VL: DIVLTQSPDSLAVSLGERATINCRASQSVSTSTYSYMHWYQQKPGQPPKLLIKYASNLESGVPDRFSGSGSGTDFTLTISSLQAEDVAVYYCQHSWEIPLTFGQGTKLEIK	Maximal Downregulation (% CD33 remaining) [3]: 20.3%; Receptor downregulation (EC50) [3]: 0.032 nM; Kd (human CD33 [4]): 2.72 nM; koff (human CD33 [4]): 0.00168 s⁻¹; kon (human CD33 [4]): 615000 M⁻¹ s⁻¹; Fold Change to Chimeric Ab (human CD33 [5]): 0.46 fold; Kd (human CD33 [5]): 3.53 nM; koff (human CD33 [5]): 0.00263 s⁻¹; kon (human CD33 [5]): 744000 M⁻¹ s⁻¹; Maximal Downregulation (% CD33 remaining) [6]: 16.1%; Receptor downregulation (EC50) [6]: 0.0726 nM
		10.3 fold	0.277 nM	321 fold	242 fold	0.00671 nM	4.8e-05 s⁻¹	7.15e+06 M⁻¹ s⁻¹	0.0272 nM	AB-64.8 (antibody, V domains shown) VH: QVQLVQSGAEVKKPGASVKISCKASGYTFTDYNYHWVRQAPGQGLEWIGFIYPSNGITGYAQKFQHRATLTVDNSTSTAYMELSSLRSEDTAVYYCARSDVDYFDYWGQGTLLTVSS VL: DIVLTQSPDSLAVSLGERATINCRASQDVSTSTYSYMHWYQQKPGQPPKLLIKYASNLESGVPDRFSGSGSGTDFTLTISSLQAEDVAVYYCQHSWEIPLTFGQGTKLEIK	
8.57 nM	0.0481 nM									AB-H65 (antibody, V domains shown, Humanized variant of murine 2F5.1) VH: QVQLVQSGAEVKKPGASVKVSCKASGYTFTDYNLHWVRQAPGQGLEWMGFIYPSNGITGYAQKFQGRVTMTRDTSTSTVYMELSSLRSEDTAVYYCARSTVDYFDYWGQGTTVTVSS VL: DIVLTQSPDSLAVSLGERATINCRASQSVSTSTYSYMHWYQQKPGQPPKLLIKYASNLESGVPDRFSGSGSGTDFTLTISSLQAEDVAVYYCQHSWEIPLTFGQGTKLEIK	
5.45 nM	0.0586 nM									AB-H15 (antibody, V domains shown, Humanized variant of murine 2F5.1) VH: QVQLVQSGAEVKKPGASVKISCKASGYTFTDYNLHWVRQAPGQGLEWIGFIYPSNGITGYAQKFQGRATLTVDTSTSTAYMELSSLRSEDTAVYYCARSTVDYFDYWGQGTLLTVSS VL: DIQMTQSPSSLSASVGDRVTITCRASQSVSTSTYSYMHWYQQKPGKAPKLLIKYASNLESGVPSRFSGSGSGTDFTLTISSLQPEDFATYYCQHSWEIPLTFGQGTKLEIK	

More lines, now with the values behind:

Binder	Kd (human CD33 [1])	Receptor downregulation (EC50) [2]	Fold affinity improvement over parental Ab (AB-H64) (human CD33 [8])	Kd (human CD33 [8])	Fold Change to AB-H64 (human CD33 [9])	Fold Change to Chimeric Ab (human CD33 [9])	Kd (human CD33 [9])	koff (human CD33 [9])	kon (human CD33 [9])	Receptor downregulation (EC50) [10]	further results
AB-64.2 (antibody, V domains shown) VH: QVQLVQSGAEVKKPGASVKISCKASGYTFTDYNLHWVRQAPGQGLEWIGFIYPSNGITGYAQKFQGRATLTVDNSTSTAYMELSSLRSEDTAVYYCARSTVDYFDYWGQGTLLTVSS VL: DIVLTQSPDSLAVSLGERATINCRVSQDVSTSTYSYMHWYQQKPGQPPKLLIKYASNLESGVPDRFSGSGSGTDFTLTISSLQAEDVAVYYCQHSWEIPLTFGQGTKLEIK			3.64 fold	0.786 nM	46.9 fold	35.5 fold	0.0458 nM	0.000137 s⁻¹	3e+06 M⁻¹ s⁻¹	0.0311 nM	Maximal Downregulation (% CD33 remaining) [7]: 26.8%; Receptor downregulation (EC50) [7]: 0.0166 nM
AB-H9 (antibody, V domains shown, Humanized variant of murine 2F5.1) VH: QVQLVQSGAELKKPGASVKVSCKASGYTFTDYNLHWVRQAPGQRLEWIGFIYPSNGITGYSQKFQGKATLTVDTSASTAYMELSSLRSEDTAVYYCARSTVDYFDYWGQGTTVTVSS VL: DIQMTQSPSSLSASVGDRVTITCRASQSVSTSTYSYMHWYQQKPGKAPKLLIYYASNLESGVPSRFSGSGSGTDFTLTISSLQPEDFATYYCQHSWEIPLTFGQGTKLEIK	3.5 nM	0.0234 nM									
AB-64.6 (antibody, V domains shown) VH: QVQLVQSGAEVKKPGASVKISCKASGYTFTDYNYHWVRQAPGQGLEWIGFIYPSNGITGYAQKFQGRATLTVDNSTSTAYMELSSLRSEDTAVYYCARSDVDYFDYWGQGTLLTVSS VL: DIVLTQSPDSLAVSLGERATINCRASQDVSTSTYSYMHWYQQKPGQPPKLLIKYASFLESGVPDRFSGSGSGTDFTLTISSLQAEDVAVYYCQHSWEIPLTFGQGTKLEIK			8.52 fold	0.336 nM	341 fold	258 fold	0.0063 nM	3.95e-05 s⁻¹	6.26e+06 M⁻¹ s⁻¹	0.034 nM	Maximal Downregulation (% CD33 remaining) [7]: 30.6%; Receptor downregulation (EC50) [7]: 0.0113 nM
AB-64.4 (antibody, V domains shown) VH: QVQLVQSGAEVKKPGASVKISCKASGYTFTDYNLHWVRQAPGQGLEWIGFIYPSNGITGYAQKFQGRATLTVDNSTSTAYMELSSLRSEDTAVYYCARSDVDYFDYWGQGTLLTVSS VL: DIVLTQSPDSLAVSLGERATINCRASQDVSTSTYSYMHWYQQKPGQPPKLLIKYASYLESGVPDRFSGSGSGTDFTLTISSLQAEDVAVYYCEHSWEIPLTFGQGTKLEIK			7.95 fold	0.36 nM	586 fold	443 fold	0.00367 nM	1.98e-05 s⁻¹	5.4e+06 M⁻¹ s⁻¹	0.0236 nM	
AB-H66 (antibody, V domains shown, Humanized variant of murine 2F5.1) VH: QVQLVQSGAEVKKPGASVKISCKASGYTFTDYNLHWVRQAPGQGLEWIGFIYPSNGITGYAQKFQGRATLTVDTSTSTAYMELSSLRSEDTAVYYCARSTVDYFDYWGQGTTVTVSS VL: DIVLTQSPDSLAVSLGERATINCRASQSVSTSTYSYMHWYQQKPGQPPKLLIKYASNLESGVPDRFSGSGSGTDFTLTISSLQAEDVAVYYCQHSWEIPLTFGQGTKLEIK	5.54 nM	0.0393 nM									
AB-64.5 (antibody, V domains shown) VH: QVQLVQSGAEVKKPGASVKISCKASGYTFTDYNYHWVRQAPGQGLEWIGFIYPSNGITGYAQKFFGRATLTVDNSTSTAYMELSSLRSEDTAVYYCARSDVDYFDYWGQGTLLTVSS VL: DIVLTQSPDSLAVSLGERATINCRASQSVGTSTYSYMHWYQQKPGQPPKLLIKYASNLESGVPDRFSGSGSGTDFTLTISSLQAEDVAVYYCQHSWEIPLTFGQGTKLEIK			7.76 fold	0.369 nM	214 fold	162 fold	0.0101 nM	6.33e-05 s⁻¹	6.3e+06 M⁻¹ s⁻¹	0.0263 nM	
AB-64.7 (antibody, V domains shown) VH: QVQLVQSGAEVKKPGASVKISCKASGYTFTDYNYHWVRQAPGQGLEWIGFIYPSNGITGYAQKFQGRATLTVDNSTSTAYMELSSLRSEDTAVYYCARSDVDYFDYWGQGTLLTVSS VL: DIVLTQSPDSLAVSLGERATINCRASQSVGTSTYSYMHWYQQKPGQPPKLLIKYASNLNSGVPDRFSGSGSGTDFTLTISSLQAEDVAVYYCQHSEEIPLTFGQGTKLEIK			11.9 fold	0.24 nM	216 fold	163 fold	0.00997 nM	8.75e-05 s⁻¹	8.78e+06 M⁻¹ s⁻¹	0.0306 nM	Maximal Downregulation (% CD33 remaining) [7]: 31.2%; Receptor downregulation (EC50) [7]: 0.017 nM
